Measurements published in paper PMC7572793 (Immunity, 2020).
Where a chain is given by its changes, count along the chain named.

B1: MGU12 (antibody, V domains shown)
VH: QVQLVESGGGVVQPGRSLRLSCAASGFSFSSYGMHWVRQAPGKGPEWVAVIWHDGSYSYYADSVRGRFTISRDNSKNTLYLQMNSLRPEDTGMYHCVKVEDYVRGSSHGGAFHIWGQGTMVTVSS
VL: DIQMTQSPSTLSASVGDRVTITCRASQTINNWLAWYQWKPGKAPELLIYKASSLESGVPSRFSGSGSGTEFTLTISSLQPDDFATYYCQQYSSYWTFGQGTKVDIK
B2: 1210 (antibody, V domains shown)
VH: QVQLVESGGGVVQPGRSLRLSCAASGFTFSNYGMHWVRQAPGKGLEWVAVIWYDGSKKYYADSVKGRFTISRDNSKNTLYLQMNSLRAEDTAVYYCARVRDSSDYYGDAFDIWGQGTMVTVSS
VL: B1 VL with T28S, N30S, N31S, W38Q, E45K, S53N, S60L, S92N, S93N, D104E
B3: 311 (antibody, V domains shown)
VH: QVQLVESGGGVVPPGRSLRLSCATSGFTFSNYGMHWVRQAPGKGLEWVAIIWYDGSRNFYAASVEGRFTISRDNSKNTLYLQMNSLRVEDTAVYYCARAAYYDTSGYGDYWGQGTLVTVSS
VL: QSVLTQPPSVSGAPGQTVTISCTGGSSNIGAGYDVHWYQQLPGTAPKLLIYGNINRPSGVPDRFSGSKSGTSASLAITGLQAEDEADYYCQSYDRRLSGSWVFGGGTKLTVL
B4: 317 (antibody, V domains shown)
VH: QMQLVESGGGVVQPGRSLRLSCTASGFTFSTYAMHWVRQSPGQGLQWVAVISYHSTNKYYEDSVRGRFTISRDNSKNTLYLQMNSLRAEDTAVYYCARDGYSSSFFDFWGQGTLVTVSS
VL: DIQMTQSPSTLSASVGDRVAITCRASQSISRWLAWYQQQPGKAPKLLMSGASVLESGVPSRFSGSGSGTEFTLTISSLQPDDFATYYCQHYNSYFVTFGQGTKVEIK
B5: CIS43 (antibody, V domains shown)
VH: QVQLVQSGAEVKKPGASVKVSCKASGYTFTSYAIHWVRQAPGQRLEWMGWIKAGNGNTRYSQKFQDRVTITRDTSTTTAYMELSSLRSEDTAVYYCALLTVLTPDDAFDIWGQGTMVTVSS
VL: not shown

Biological target: T1, (NANP)8 (Plasmodium falciparum)
T1 chain: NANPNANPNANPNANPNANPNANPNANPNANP
Assay: ELISA

| Binder | binding result |
| --- | --- |
| B1 | binds |
| B2 | binds |
| B3 | binds |
| B4 | binds |

Biological target: T2, peptide 29 (Plasmodium falciparum 3D7)
T2 chain: NANPNANPNANPNAN
Assay: ELISA

| Binder | binding result |
| --- | --- |
| B1 | binds |
| B2 | binds |
| B3 | binds |
| B4 | binds |

Biological target: T3, (NANP)5 (Plasmodium falciparum)
T3 chain: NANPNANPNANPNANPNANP
Assay: ELISA

| Binder | binding result |
| --- | --- |
| B1 | binds |
| B3 | binds |
| B4 | binds |

Biological target: T4, (NANP)3 (Plasmodium falciparum)
T4 chain: NANPNANPNANP
Assay: ELISA

| Binder | binding result |
| --- | --- |
| B1 | binds |
| B3 | binds |
| B4 | binds |

Biological target: T5, (NANP)6 (Plasmodium falciparum)
T5 chain: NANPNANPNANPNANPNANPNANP
Assay: ELISA

| Binder | binding result |
| --- | --- |
| B1 | binds |
| B2 | binds |
| B3 | binds |

Biological target: T6, (NANP)7 (Plasmodium falciparum)
T6 chain: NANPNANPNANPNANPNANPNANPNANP
Assay: ELISA

| Binder | binding result |
| --- | --- |
| B1 | binds |
| B2 | binds |
| B3 | binds |
| B4 | binds |

Biological target: T7, (NANP)9 (Plasmodium falciparum)
T7 chain: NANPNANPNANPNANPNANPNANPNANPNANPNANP
Assay: ELISA

| Binder | binding result |
| --- | --- |
| B1 | binds |
| B2 | binds |
| B3 | binds |
| B4 | binds |
| B5 | binds |
